In US20210395344A1 (TWIST BIOSCIENCE, published 2021):
Residue numbers refer to the chain shown, from its start.

B1: SARS-CoV-2 variant 1-22 (antibody, V domains shown)
VH: EVQLLESGGGLVQPGGSLRLSCAASGFTFSSYAMNWVRQAPGKGLEWVSIISGSGGSTYYADSVKGRFTISRDNSKNTLYLQMNSLRAEDTAVYYCAREGYRDYLWYFDLWGQGTLVTVSS
VL: QSALTQPASVSGSPGQSITISCTGTSTDVGSYNLVSWYQQHPGKAPKLMIYEGSQRPSGVSNRFSGSKSGNTASLTISGLQAEDEADYYCCSYAGSSTVFGGGTKLTVL
B2: SARS-CoV-2 variant 1-23 (antibody, V domains shown)
VH: B1 VH with M34I, N35S
VL: B1 VL with T27N, S54N, Q55K, S97Y
B3: SARS-CoV-2 variant 1-24 (antibody, V domains shown)
VH: B1 VH
VL: B1 VL with T27S, S31Y, S54N, Q55K, S96G, T98V
B4: SARS-CoV-2 variant 1-10 (antibody, V domains shown)
VH: EVQLLESGGGLVQPGGSLRLSCAASGFTFSSYDMSWVRQAPGKGLEWVSVISGSGGSTYYADSVKGRFTISRDNSKNTLYLQMNSLRAEDTAVYYCAKGPLVGWYFDLWGQGTLVTVSS
VL: QSALTQPASVSGSPGQSITISCTGTSSNVGSYNLVSWYQQHPGKAPKLMIYEGTKRPSGVSNRFSGSKSGNTASLTISGLQAEDEADYYCCSYAGSSSFVVFGGGTKLTVL
B5: SARS-CoV-2 variant 1-7 (antibody, V domains shown)
VH: B4 VH
VL: B4 VL with N28D, V29F, T54N, S98T
B6: SARS-CoV-2 variant 1-9 (antibody, V domains shown)
VH: B4 VH
VL: B4 VL with N28D, S31D, T54S, K55N
B7: SARS-CoV-2 variant 1-33 (antibody, V domains shown)
VH: EVQLLESGGGLVQPGGSLRLSCAASGFTFSSYAMIWVRQAPGKGLEWVSAISGSGGSTFYADSVKGRFTISRDNSKNTLYLQMNSLRAEDTAVYYCTRPPYGDYGDYWGQGTLVTVSS
VL: B4 VL with N28D, V35L, G53A, T54S, S97R, S98T, F99P
B8: SARS-CoV-2 variant 1-42 (antibody, V domains shown)
VH: EVQLLESGGGLVQPGGSLRLSCAASGVTFSSYAMSWVRQAPGKGLEWVSAITGSGGSTYYADSVKGRFTISRDNSKNTLYLQMNSLRAEDTAVYYCAKHGSGTIFGVVIAKYYFDYWGQGTLVTVSS
VL: QSALTQPASVSGSPGQSITISCTGTSSDVGRYNLVSWYQQHPGKAPKLMIYEGGKRPSGVSNRFSGSKSGNTASLTISGLQAEDEADYYCCSYASSSTLVFGGGTKLTVL
B9: SARS-CoV-2 variant 1-8 (antibody, V domains shown)
VH: B4 VH
VL: B8 VL with S27N, R31S, G54S, S95G, S97R, T98Y, L99V
B10: SARS-CoV-2 variant 1-32 (antibody, V domains shown)
VH: B7 VH with I35Y
VL: QSALTQPASVSGSPGQSITISCTGTSSDVGGYNLVSWYQQHPGKAPKLMIYEGNKRPSGVSNRFSGSKSGNTASLTISGLQAEDEADYYCCSYAGSSTFPVVFGGGTKLTVL
B11: SARS-CoV-2 variant 1-21 (antibody, V domains shown)
VH: B1 VH with A33T, N35S
VL: QSALTQPASVSGSPGQSITISCTGTSSDVGSNNLVSWYQQHPGKAPKLMIYEGNKRPSGVSNRFSGSKSGNTASLTISGLQAEDEADYYCCSYAGSVVFGGGTKLTVL
B12: SARS-CoV-2 variant 1-27 (antibody, V domains shown)
VH: EVQLLESGGGLVQPGGSLRLSCAASGFTFSSYAMTWVRQAPGKGLEWVSAISGSGGGTYYADSVKGRFTISRDNSKNTLYLQMNSLRAEDTAVYYCASSSSWQFDYWGQGTLVTVSS
VL: B4 VL with N28Y, S31H, T54S, K55R, S97Y, S98T, F99H, V100Y
B13: SARS-CoV-2 variant 1-28 (antibody, V domains shown)
VH: B12 VH with A33G, T35S
VL: B4 VL with N28G, T54S, K55Q, S98T, F99H, V100Y
B14: SARS-CoV-2 variant 1-17 (antibody, V domains shown)
VH: EVQLLESGGGLVQPGGSLRLSCAASGFTFSSYAMYWVRQAPGKGLEWVSAISGSAGSTYYADSVKGRFTISRDNSKNTLYLQMNSLRAEDTAVYYCARDTNDFWSGYSIFDPWGQGTLVTVSS
VL: B8 VL with V29I, R31S, G54T, S95G, S97R, L99Y
B15: SARS-CoV-2 variant 1-47 (antibody, V domains shown)
VH: EVQLLESGGGLVQPGGSLRLSCAASGFTFSSQAMSWVRQAPGKGLEWVSAISGSGGGTYYADSVKGRFTISRDNSKNTLYLQMNSLRAEDTAVYYCAKDRRFGEFDPWGQGTLVTVSS
VL: B4 VL with N28G, T54I
B16: SARS-CoV-2 variant 1-29 (antibody, V domains shown)
VH: B14 VH
VL: B8 VL with V29I, R31S, G54T, S95G, S97R, L99Y

The binders below were run against T1, SARS-CoV-2 S1 (subunit 1) protein (SARS-CoV-2, UniProt P0DTC2 16-685) (assay: phage ELISA).
T1 construct: also called biotinylated SARS-CoV-2 S1

Binder | screening ELISA (Avg), fold over background [fold over background]
B1 | 40.6
B2 | 23.1
B3 | 32.9
B4 | 16.9
B5 | 22.5
B6 | 18.5
B7 | 17.6
B8 | 34.5
B9 | 19.3
B10 | 17.9
B11 | 47.6
B12 | 27.2
B13 | 17.7
B14 | 27.4
B15 | 22.6
B16 | 23.8

The binders below were run against T2, COVID S1 RBD Fc fusion (Antigen 1) (SARS-CoV-2, UniProt P0DTC2 319-541) (assay: phage ELISA).
T2 construct: domain: RBD

Binder | specificity ELISA, fold over background [fold over background] | specificity ELISA, percent binding relative to Acro S1 [%]
B1 | 26.5 | 81.2
B2 | 3.6 | 70.9
B3 | 11 | 85.4
B4 | 17.4 | 100
B5 | 3.3 | 48.7
B6 | 9.8 | 91.1
B8 | 20.8 | 91.4
B9 | 11.2 | 92.9
B11 | 14.8 | 75.7
B14 | 20.1 | 79.8
B15 | 5.5 | 68.9

Each binder was assayed against S1-Fc (SARS-CoV-2, UniProt P0DTC2 16-685) (assay: phage ELISA).

Binder | specificity ELISA, fold over background [fold over background] | specificity ELISA, percent binding relative to Acro S1 [%]
B2 | 1.6 | 31.1
B7 | 3 | 42.1
B10 | 4 | 35.3
B12 | 1.3 | 84.8
B13 | 1.1 | 110
B16 | 1 | 94

These binders were tested against T3, COVID S1 RBM Fc fusion (Antigen 2) (SARS-CoV-2, UniProt P0DTC2 437-508) (assay: phage ELISA).
T3 construct: domain: RBM

Binder | specificity ELISA, fold over background [fold over background] | specificity ELISA, percent binding relative to Acro S1 [%]
B1 | 1.5 | 4.7
B2 | 1.6 | 32
B3 | 1.3 | 10.3
B4 | 1.1 | 6.2
B5 | 1.6 | 23
B6 | 1 | 9.3
B7 | 1 | 14.6
B8 | 1 | 4.2
B9 | 1.2 | 10.3
B10 | 1.1 | 9.5
B11 | 1.4 | 7
B12 | 1.6 | 109
B13 | 1.2 | 124
B14 | 1.3 | 5.2
B15 | 0.9 | 11.1
B16 | 0.9 | 78.3
